Source: US10088487B2, “Method for the quantitative characterization of amyloid and/or aggregating peptides and/or proteins in a sample” (Forschungszentrum Juelich GmbH, priority 2013, dated 2018)
Non-standard residues stand in square brackets, D forms with d. No end group written: not given here.

Legend:
[1] = target: T1, Aβ(1-42) oligomers (Homo sapiens, UniProt P05067); test: Density gradient centrifugation combined with RP-HPLC: effect of active ingredient on size distribution of Aβ(1-42) aggregates; assay type: biochemical; conditions: for quantity of Aβ oligomers in fractions 4 to 6: co-incubation 40 min, vs control without active ingredient
T1 construct: 1 mg of lyophilized Aβ(1-42) (Bachem, Heidelberg); purchased Bachem, Heidelberg
Procedure: For the following examples of embodiments, only one ultracentrifuge and one HPLC system having a suitable separating column and a UV detector were required. In order to determine the reduction of the Aβ oligomer proportion in an aggregate mixture, pretreated and dried Aβ(1-42) peptide was dissolved in buffer and incubated until the greatest possible Aβ oligomer proportion was obtained. The active ingredient to be analyzed was then added to this oligomer-enriched sample.
1 mg of lyophilized Aβ(1-42) (Bachem, Heidelberg) was incubated, after being removed from the freezer, for 10 to 30 min at room temperature (RT) in order to equalize the temperature of the peptide pellet and of the surrounding environment and thus to avoid moisture condensing from the air. Thereafter, the Aβ peptide was dissolved in HFIP (1,1,1,3,3,3-hexafluoro-2-propanol) (Sigma-Aldrich, Taufkirchen) in a concentration of 1 mg/700 μl and incubated overnight at RT with shaking until full dissolution was achieved, in order to ensure that the Aβ(1-42) exists entirely as monomers at this point in time. The Aβ(1-42) was then aliquoted in an amount of 36 μg per Eppendorf vessel. To remove the HFIP, the aliquots were left to stand open under the extractor for approximately 30 min. The rotational vacuum concentrator (rotational vacuum concentrator RVC 2-18, Christ, Mainz-Mombach) was pre-cooled for approximately 30 min. The Aβ(1-42) aliquots were then dried for a further 30 min in the rotational vacuum concentrator so that the last HFIP residues could also evaporate off. The aliquoted, dried Aβ(1-42) was stored at −20° C. until use.
Prior to the experiment, one Aβ(1-42) aliquot was dissolved to 80 μM in 100 μl of 10 mM NaH2PO4/Na2HPO4 buffer (Sigma-Aldrich, Taufkirchen), pH 7.4 and incubated at RT for 6 h with shaking. The incubation time of 6 h was optimized for this specific Aβ from this specific company in order to ensure that the largest possible proportion of the Aβ exists as oligomers, so as to be able to measure the reduction thereof as unambiguously as possible. For other Aβ peptides from other manufacturers, the incubation time may vary and should/can be adapted accordingly.
Thereafter, the active ingredient candidate to be analyzed was added in a quantity of 10 or 20 μM. The co-incubation of the Aβ/active ingredient solution took place for 40 min at RT with continuous shaking. When no active ingredient was added (control), the Aβ solution was treated in the same way.
The samples were then layered onto a pre-formed density gradient (see Table 1). The gradient material used consisted of a 60% strength (w/v) iodixanol solution named Optiprep™ (Axis-Shield, Oslo, Norway). It is a dimeric compound of iohexol having the systematic name 5,5-[(2-hydroxy-1,3-propanediyl)-bis(acetylimino)]bis-[N,N′-bis(2,3-hydroxypropyl)-2,4,6-triiodobenzenedicarboxamide]. […]
The non-linear density gradient was centrifuged at 4° C. and 259,000×g in a TLS-55 swing-out rotor (Beckman-Coulter, Palo Alto, USA) for 3 h in a TL 100 ultracentrifuge (Beckman-Coulter, Palo Alto, USA). The density gradient is measured by refractometric determination of the iodixanol concentration in the individual fractions. An estimate of the size of sedimented protein particles based on the position in the gradient at the end of the centrifugation takes place on the basis of a calibration using marker proteins of known size and shape, which were analyzed under identical centrifugation conditions on the gradient. […]

[2] = system: transgenic AD mice; conditions: oral administration with drinking water; cited from earlier work
[3] = system: Aβ oligomers; conditions: according to what is presently known; cited from earlier work
Chain of Aβ oligomers (P05067 672-711 limits assumed): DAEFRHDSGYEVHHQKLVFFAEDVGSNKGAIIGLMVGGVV

T1 sequence (P05067 672-713): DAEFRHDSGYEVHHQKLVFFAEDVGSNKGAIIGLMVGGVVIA

## D3D3: tandem dimer of the D-peptide D3; SEQ ID NO: 2 ([dR][dP][dR][dT][dR][dL][dH][dT][dH][dR][dN][dR][dR][dP][dR][dT][dR][dL][dH][dT][dH][dR][dN][dR])
[1]; 10 μM D3D3, 80 μM Aβ(1-42) pre-incubated 6 h
  quantity of Aβ oligomers in fractions 4 to 6: reduction in the quantity of oligomers
[1]; 10 μM D3D3, vs control without active ingredient
  proportion of large aggregates in fractions 11 to 14: much greater
[1]; 10 μM D3D3 versus 20 μM D3
  effect in eliminating oligomeric Aβ species compared with D3: much more pronounced effect

## D3: D-enantiomeric peptide identified by mirror image phage display selection against predominantly monomeric Aβ(1-42); SEQ ID NO: 1 ([dR][dP][dR][dT][dR][dL][dH][dT][dH][dR][dN][dR])
[2]
  cognitive capabilities of treated transgenic AD mice: significantly improved cognitive capabilities
  plaques in treated transgenic AD mice: considerably fewer plaques
[1]; 20 μM D3, 80 μM Aβ(1-42) pre-incubated 6 h
  quantity of Aβ oligomers in fractions 4 to 6: reduction in the quantity of oligomers
[1]; 20 μM D3, vs control without active ingredient
  proportion of large aggregates in fractions 11 to 14: much greater
[3]
  effect on toxic Aβ oligomers (conversion into non-toxic, non-amyloidogenic, ThT-negative amorphous aggregates): destroys the particularly toxic Aβ oligomers
